Test results as given in patent US20240262922A1 (Merck KGaA, published 2024).

T1: AVI-GST-His6-hOX40L (human, UniProt P23510 51-183)
T1 sequence: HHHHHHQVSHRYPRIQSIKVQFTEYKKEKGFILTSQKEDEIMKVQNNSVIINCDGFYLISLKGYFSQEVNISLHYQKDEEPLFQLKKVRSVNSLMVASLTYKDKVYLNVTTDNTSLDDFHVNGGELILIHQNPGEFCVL

T2: recombinant human OX40L protein (R&D Systems, cat. #1054-OX) (human, UniProt P23510 51-183)
T2 construct: Bought soluble recombinant protein; also called rhOX40L; recombinant soluble OX40L
T2 sequence: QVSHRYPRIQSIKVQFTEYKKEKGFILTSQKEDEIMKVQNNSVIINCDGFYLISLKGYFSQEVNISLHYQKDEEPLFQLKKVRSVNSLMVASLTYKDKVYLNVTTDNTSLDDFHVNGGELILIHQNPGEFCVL


Key:
[1] = biological target: T1, AVI-GST-His6-hOX40L; experiment: cell-based or functional assay
[2] = biological target: T2, recombinant human OX40L protein (R&D …); experiment: SPR steady state, Biacore T200; OX40L immobilised on CM5, FcFab in solution
Protocol: Recombinant OX40L proteins (human OX40L protein, R&D systems, cat. #1054-OX; cynomolgus monkey OX40L, Novoprotein cat. #CP72) were immobilized onto Biacore CM5 sensor chips and anti-OX40L antibodies were bound to this surface at a range of concentrations. The response at steady state was measured with a Biacore T200 instrument (GE Healthcare) and plotted against the concentration of antibody and fit to a 1:1 binding model. The steady state KD was determined as the antibody concentration at a response equal to half the maximal response (Rₘₐₓ).
As with the IgG clones, binding affinity to human OX40L was determined for all twelve FcFabs using steady state affinity assay as described in section 1.1.7 of Example 1. […]

[3] = biological target: T2, recombinant human OX40L protein (R&D …); experiment: cell-based or functional assay

| OX40L neutralization/OX40-HEK Reporter IC50 [1] | Kd [2] | Primary T cell activation assay IC50 [3] | Binder |
| --- | --- | --- | --- |
| 5.4 nM | 27.8 nM | – | 98C01 (FcFab) (antibody) heavy: EPKSSDKTHTCPPCPAPPVAGPSVFLFPPKPKDTLMISRTPEVTCVVVDVSHEDPEVKFNWYVDGVEVHNAKTKPREEQYNSTYRVVSVLTVLHQDWLNGKEYKCAVSNKALPSSIEKTISKAKGQPREPQVYTLPPSREEMTKNQVSLTCLVKGFYPSDIAVEWESNGQPENNYKTTPPVLDSDGSFFLYSKLTVDKSRWQQGNVFSCSVMHEALHNHYTQKSLSLSPGAGGGGSGGGGSGGGGSQVQLQESGPGLVKPSETLSLTCTVSGGSISSSSYYWGWIRQPPGKGLEWIGGIGSVDYSGNTYYKPSLKSRVTISVDTSKNQFSLKLSSVTAADTAVYHCARHRGIYFFDYWGQGTLVTVSSASTKGPSVFPLAPSSKSTSGGTAALGCLVKDYFPEPVTVSWNSGALTSGVHTFPAVLQSSGLYSLSSVVTVPSSSLGTQTYICNVNHKPSNTKVDKRVEPKSC light: SYELTQPPSVSVALGQTARITCGGNNIENKNVHWYQQKPGQAPVLVIYRDSNRPSGIPERFSGSNSGNTATLSINRAQAGDEADYYCQVWDSNTVVFGGGTKLTVLGQPKAAPSVTLFPPSSEELQANKATLVCLISDFYPGAVTVAWKADSSPVKAGVETTTPSKQSNNKYAASSYLSLTPEQWKSHKSYSCQVTHEGSTVEKTVAPTECS |
| 5.7 nM | 33 nM | 5.3 nM | 98E10 (FcFab) (antibody) heavy: EPKSSDKTHTCPPCPAPPVAGPSVFLFPPKPKDTLMISRTPEVTCVVVDVSHEDPEVKFNWYVDGVEVHNAKTKPREEQYNSTYRVVSVLTVLHQDWLNGKEYKCAVSNKALPSSIEKTISKAKGQPREPQVYTLPPSREEMTKNQVSLTCLVKGFYPSDIAVEWESNGQPENNYKTTPPVLDSDGSFFLYSKLTVDKSRWQQGNVFSCSVMHEALHNHYTQKSLSLSPGAGGGGSGGGGSGGGGSQLQLQESGPGLVKPSETLSLTCTVAGASVSSSSYYWGWIRQSPGKGLEWIGTINYGGSTYHNPSLKRRVTVSVDTSKNQFSLKLTSVTAADTAVYYCARHRGIYHFDYWGQGTLVTVSSASTKGPSVFPLAPSSKSTSGGTAALGCLVKDYFPEPVTVSWNSGALTSGVHTFPAVLQSSGLYSLSSVVTVPSSSLGTQTYICNVNHKPSNTKVDKRVEPKSC light: SYELTQPLSVSVALGQTARITCGGNNIENKNVHWYQQMPGQAPVLVIYRDSNRPSGIPERFSGSNSGNTATLTINRAQAGDEADYYCQVWDSNTVVFGGGTKVTVLGQPKAAPSVTLFPPSSEELQANKATLVCLISDFYPGAVTVAWKADSSPVKAGVETTTPSKQSNNKYAASSYLSLTPEQWKSHKSYSCQVTHEGSTVEKTVAPTECS |
| 5.5 nM | 33.1 nM | 15.6 nM | 68F03 (FcFab) (antibody) chain 1: EPKSSDKTHTCPPCPAPPVAGPSVFLFPPKPKDTLMISRTPEVTCVVVDVSHEDPEVKFNWYVDGVEVHNAKTKPREEQYNSTYRVVSVLTVLHQDWLNGKEYKCAVSNKALPSSIEKTISKAKGQPREPQVYTLPPSREEMTKNQVSLTCLVKGFYPSDIAVEWESNGQPENNYKTTPPVLDSDGSFFLYSKLTVDKSRWQQGNVFSCSVMHEALHNHYTQKSLSLSPGAGGGGSGGGGSGGGGSQLQLQESGPGLVKPSETLSLTCTVSGGSIDTSSQYWAWIRQPPGKGLEWIGGIYFSGSTYQNPSLKSRVTTSVDTSKNQFSLRLSSMTAADTAVYYCARHRGIYFFDYWGQGTLVTVSSASTKGPSVFPLAPSSKSTSGGTAALGCLVKDYFPEPVTVSWNSGALTSGVHTFPAVLQSSGLYSLSSVVTVPSSSLGTQTYICNVNHKPSNTKVDKRVEPKSC chain 2: SFELTQPLSVSVALGQTARITCGGINIENKNVHYYQQKPGQAPVLVIYRDTNRPSGIPERFSGSNSGNTATLTISRAQAGDEADYYCQVWDSNTVIFGGGTKVTVLGQPKAAPSVTLFPPSSEELQANKATLVCLISDFYPGAVTVAWKADSSPVKAGVETTTPSKQSNNKYAASSYLSLTPEQWKSHKSYSCQVTHEGSTVEKTVAPTECS |
